# Measurements from patent US9057734B2, “Optogenetic probes for measuring membrane potential” (President and Fellows of Harvard College, priority 2010, dated 2015).
# Entries after “also recorded” stand apart in the source; their conditions may differ.
# B1: Arch D95N: D95N mutant of Archaerhodopsin 3 without photocurrent, voltage indicator (protein, UniProt P96787 7-258, looked up, variant D95N)
# Archaerhodopsin-3: QAGYDLLGDGRPETLWLGIGTLLMLIGTFYFLVRGWGVTDKDAREYYAVTILVPGIASAAYLSMFFGIGLTEVTVGGEMLDIYYARYANWLFTTPLLLLDLALLAKVDRVTIGTLVGVDALMIVTGLIGALSHTAIARYSWWLFSTICMIVVLYFLATSLRSAAKERGPEVASTFNTLTALVLVLWTAYPILWIIGTEGAGVVGLGIETLLFMVLDVTAKVGFGFILLRSRAILGDTEAPEPSAGADVSAAD
# Experiments:
# E. coli = assay: Chemical perturbation of fluorescence flashing of E. coli expressing PROPS; format: cell-based; details: 20 μg/mL
# Excerpt: PROPS was expressed in E. coli, the cells were immobilized on a glass coverslip, and imaged in an inverted epifluorescence microscope while gently flowing minimal medium at pH 7 over the cells. […] The flashes occurred simultaneously (to within the 10 ms imaging resolution) and homogeneously over the extent of a cell. Flashes were uncorrelated between neighboring cells.
# Flashing cells were subjected to chemical perturbations in an effort to deduce the mechanism of the voltage changes. In unstirred medium in a sealed chamber, the flashing ceased over ˜15 minutes; but re-started upon addition of freshly oxygenated medium. Removal of oxygen from the medium using Oxyrase also reversibly eliminated flashing. From these experiments it was concluded that flashing requires aerobic respiration. Under continuous gentle flow of aerated minimal medium, cells flashed continuously for >1 hr. Cells stored in minimal media for several days at 4° C. started flashing when warmed to room temperature.
# Flashing was highly sensitive to pHo, occurring only between pH 7 and 9. Flashing frequencies increased and on-time decreased at lower pH. Flashing was more likely to be periodic at lower pH. Extremes of pH (<6 or >9.5) irreversibly eliminated flashing, causing cells to enter the bright state in an abrupt transition.
# [1] = Spectroscopic characterization of purified Arch WT and D95N; format: physicochemical
# Protocol: FIGS. 17A-17C show pH-dependent spectra of Arch 3 WT and D95N. […] At neutral pH, Arch absorbed maximally at 558 nm. Fluorescence emission (dashed line) was recorded on 2 μM protein solubilized in 1% DM, with λexc=532 nm. […] The absorption maximum was at 585 nm. […] Singular Value Decomposition of absorption spectra between 400-750 nm was used to calculate the fraction of the SB in the protonated state as a function of pH. The result was fit to a Hill function to determine the pKa of the SB.
# Arch and its D95N mutant were expressed and purified from E. coli, following Bergo, V., et al. (Conformational changes detected in a sensory rhodopsin II-transducer complex. J. Biol. Chem. 278, 36556-36562 (2003)). Briefly, E. coli (strain BL21, pet28b plasmid) was grown in 1 L of LB with 100 μg/mL kanamycin, to an O.D 600 of 0.4 at 37° C. All-trans retinal (5 μM) and inducer (IPTG 0.5 mM) were added and cells were grown for an additional 3.5 hours in the dark. Cells were harvested by centrifugation and resuspended in 50 mM Tris, 2 mM MgCl2 at pH 7.3 and lysed with a tip sonicator for 5 minutes. The lysate was centrifuged and the pellet was resuspended in PBS supplemented with 1.5% dodecyl maltoside (DM). The mixture was homogenized with a glass/teflon Potter Elvehjem homogenizer and centrifuged again. The supernatant was concentrated and washed using a centricon 30k MWCO filter to a final volume of 3 mL.
# The absorption spectra of purified Arch 3 WT and D95N were determined using an Ocean Optics USB4000 spectrometer with a DT-MINI-2-GS light source. Absorption spectra, for Arch 3 WT and D95N, were measured as a function of pH between pH 6 and 11. To determine the fluorescence emission spectra, proteins in a quartz cuvette were illuminated with the uncollimated beam of a 100 mW, 532 nm laser (Dragon Lasers, 532GLM100) or a 25 mW, 633 nm HeNe laser (Spectra-Physics). Scattered laser light was blocked with a 532 nm Raman notch filter (Omega Optical, XR03) or a 710/100 emission filter (Chroma), and fluorescence was collected perpendicular to the illumination with a 1000 micron fiber, which passed the light to an Ocean Optics QE65000 spectrometer. Spectra were integrated for 2 seconds.
# The fluorescence quantum yields of Arch 3 WT and D95N were determined by comparing the integrated emission intensity to emission of a sample of the dye ALEXA FLUOR® 647 Conjugate. Briefly, the concentrations of micromolar solutions of dye and protein were determined using a visible absorption spectrum. […] The fluorescence emission spectra of dye and protein samples were measured with 633 nm excitation. The quantum yield was then determined by the formula
# where Fl is the integrated fluorescence from 660 to 760 nm, ε is the extinction coefficient at 633 nm and c is the concentration.
# HEK-293 cells = assay: Fluorescence versus membrane potential under whole-cell voltage clamp (ramp, step, frequency response, noise); format: cell-based, human
# Protocol: Fluorescence of Arch 3 in HEK 293 cells was readily imaged in an inverted fluorescence microscope with red illumination (λ=640 nm, I=540 W/cm^2), a high numerical aperture objective, a Cy5 filter set, and an EMCCD camera. […] Cells not expressing Arch were not fluorescent.
# HEK-293 cells were grown at 37° C., 5% CO2, in DMEM supplemented with 10% FBS and penicillin-streptomycin. Plasmids were transfected using LIPOFECTAMINE™ and PLUS reagent (Invitrogen) following the manufacturer's instructions, and assayed between 48-72 hours later. The day before recording, cells were re-plated onto glass-bottom dishes (MatTek) at a density of ˜5000 cells/cm^2.
# The concentration of endogenous retinal in the HEK cells was not known, so the cells were supplemented with retinal by diluting stock retinal solutions (40 mM, DMSO) in growth medium to a final concentration of 5 μM, and then placing the cells back in the incubator for 1-3 hours. All imaging and electrophysiology were performed in Tyrode's buffer (containing, in mM: 125 NaCl, 2 KCl, 3 CaCl2, 1 MgCl2, 10 HEPES, 30 glucose pH 7.3, and adjusted to 305-310 mOsm with sucrose). Only HEK cells having reversal potentials between −10 and −40 mV were included in the analysis.
# Simultaneous fluorescence and whole-cell patch clamp recordings were acquired on a home-built, inverted epifluorescence microscope at room temperature. A diode laser operating at 100 mW, 640 nm (CrystaLaser, DL638-100-O) provided wide-field illumination at an intensity typically between 500-2000 W/cm^2. To minimize background signal from out-of-focus debris, illumination was often performed in through-the-objective total internal reflection fluorescence (TIRF) mode. Fluorescence emission was collected using a 60×, 1.45 NA oil immersion objective (Olympus), and separated from scattered excitation using a 660-760 nm bandpass emission filter (Chroma). For fast imaging of dynamic fluorescence responses and action potentials, images were acquired on an Andor iXon^+ 860 camera operating at up to 2,000 frames/s (using a small region of interest and pixel binning). Slower images with higher spatial resolution were acquired on an Andor iXon^+ 897 EMCCD. Custom software written in LabView (National Instruments) was used to synchronize illumination, collection of images, recording of membrane potential and cell current, and application of electrical stimuli to the cell.
# Filamented glass micropipettes (WPI) were pulled to a tip resistance of 3-10 MΩ, fire polished, and filled with internal solution (containing, in mM: 125 Potassium gluconate, 8 NaCl, 0.6 MgCl2, 0.1 CaCl2, 1 EGTA, 10 HEPES, 4 Mg-ATP, 0.4 Na-GTP, pH 7.3; adjusted to 295 mOsm with sucrose). The micropipettes were positioned with a Burleigh PCS 5000 micromanipulator. Whole-cell, voltage clamp recordings were acquired using an AxoPatch 200B amplifier (Molecular Devices), filtered at 2 kHz with the internal Bessel filter, and digitized with a National Instruments PCIE-6323 acquisition board at 10 kHz. Ambient 60 Hz noise was removed using a HumBug Noise Eliminator (AutoMate Scientific). For experiments requiring rapid modulation of transmembrane potential, series resistance and whole-cell capacitance were predicted to 95% and corrected to ˜50%. Electrical stimuli were generated using the PCIE-6323 acquisition board and sent to the AXOPATCH™, which then applied these signals in either constant current or constant voltage mode.
# To measure fluorescence as a function of membrane potential, a triangle wave was applied, with amplitude from −150 mV to +150 mV and period 12 s, with video recording at 100 ms per frame. A pixel weight matrix was calculated according to Eq. S2 and applied to the movie images to generate a fluorescence number for each frame. These fluorescence values were divided by their minimum value (at V=−150 mV). The result is plotted as a function of Vin FIGS. 7 and 8. […]
# HEK cells = assay: Photocurrents under 640 nm illumination in voltage-clamped cells; format: cell-based, human; details: illumination at 640 nm
# Protocol: Measurements of photocurrents were performed on HEK cells held in voltage clamp at 0 mV while being exposed to brief (200 ms) pulses of illumination at 640 nm at an intensity of 1800 W/cm^2.
# neurons = assay: Light-induced photocurrent and perturbation of membrane potential in neurons; format: cell-based, rat; details: 640 nm, 1800 W/cm2
# Excerpt: Under illumination conditions typically used for imaging neural activity (I=1800 W/cm2 in total internal reflection (TIR) mode), the light-induced outward photocurrent was typically 10 pA in neurons expressing Arch 3 WT. Under current-clamp conditions this photocurrent shifted the resting potential of the neurons by up to −20 mV. For neurons near their activation threshold, this photocurrent could suppress firing (FIG. 9A), so we explored the non-pumping variant D95N as a voltage indicator in neurons.
# Whole-cell current clamp recordings were obtained from mature neurons under the same conditions used for HEK cells recordings. Series resistance and pipette capacitance were corrected. Only neurons having resting potentials between −50 and −70 mV were used in the analysis.
Molecule,effect on blinking (E. coli),"ε633 ([1]; calibrated assuming peak extinction coefficient of Bacteriorhodopsin, 63,000 M^−1 cm^−1)","QY ([1]; comparison to Alexa 647, excitation at 633 nm)",comparison with Arch 3 WT (HEK-293 cells),voltage steps resolved/reported (HEK-293 cells; HEK cells) [mV],"fast component of step response, time (HEK-293 cells; step response) [μs]",response time to a step in membrane potential (HEK-293 cells; steps between −70 mV and +30 mV) [ms],increase of fluorescence (fold/factor) between −150 mV and +150 mV (HEK-293 cells; whole-cell voltage clamp),photocurrent / photoinduced proton pumping (HEK cells),photocurrent / photoinduced proton pumping (HEK cells; listed as Arch 3 D95N),effect of illumination on membrane potential (neurons)
"N#CC(C#N)=NNc1cccc(Cl)c1 [CCCP, Carbonyl cyanide 3-chlorophenylhydrazone]",rapidly and irreversibly eliminated the blinking,–,–,–,–,–,–,–,–,–,–
B1,–,"37,500 M^−1cm^−1",4 × 10^−4,"more sensitive and brighter than Arch 3 WT, but had a slower response",10,< 500,40,3,no photocurrent; also recorded: eliminated the photocurrent,lacks photoinduced proton pumping,no effect of illumination on spiking or resting potential; also recorded: did not perturb membrane potential
